Measured values as given in patent publication US20200165313A1, “EGF(A) ANALOGUES, PREPARATION, FORMULATIONS AND USES THEREOF” (Novo Nordisk A/S, priority 2017, published 2020).

Target: T1, hPCSK9 (Homo sapiens, UniProt Q8NBP7)
T1 construct: purchased Sino Biologicals, China
Assay: hPCSK9 challenge model (hepatic LDL-R expression in mice, Western Blot)
Assay type: in vivo, mouse
Conditions: healthy control 100%, hPCSK9 alone 0%, dose of inhibitor 22 nmol/kg
Protocol: The aim of this study was to show the change in the LDL receptor expression level in mouse liver in response to inhibiting the action of intravenously injected hPCSK9 with an anti-PCSK9 peptide.
Healthy male BalBC or NMRI mice (Charles River, Germany) are injected with an anti-PCSK9 peptide, either s.c. or i.v. 15-120 minutes before injecting hPCSK9 (Sino Biologicals, China) intravenously in the tail vein at a dose of 0.4 mg/kg. Sixty minutes after the injection of hPCSK9, the animals are anaesthetised in isoflurane and euthanised by cervical dislocation. The liver is then quickly excised and snapfrozen in liquid nitrogen. The livers are kept at −80 degrees celsius until analysis.
The proteins were transferred to nitrocellulose membranes (iBlot 2 NC Regular stacks, novex # IB23001) according to manufacturer's instructions (Life Technology). Equal protein transfer was confirmed by Ponceau S (Sigma, P7170) staining of the membranes and the membranes were further blocked in blocking buffer (TBS-T, 2% Tween). […] Quantitative analysis of chemiluminescent signals from Western blots was done with MultiGauge software (Fujifilm).
“Vehicle-vehicle” is the group of healthy controls (baseline level), “vehicle-hPCSK9” is the group injected with hPCSK9 alone.

T1 sequence (Q8NBP7 153-692): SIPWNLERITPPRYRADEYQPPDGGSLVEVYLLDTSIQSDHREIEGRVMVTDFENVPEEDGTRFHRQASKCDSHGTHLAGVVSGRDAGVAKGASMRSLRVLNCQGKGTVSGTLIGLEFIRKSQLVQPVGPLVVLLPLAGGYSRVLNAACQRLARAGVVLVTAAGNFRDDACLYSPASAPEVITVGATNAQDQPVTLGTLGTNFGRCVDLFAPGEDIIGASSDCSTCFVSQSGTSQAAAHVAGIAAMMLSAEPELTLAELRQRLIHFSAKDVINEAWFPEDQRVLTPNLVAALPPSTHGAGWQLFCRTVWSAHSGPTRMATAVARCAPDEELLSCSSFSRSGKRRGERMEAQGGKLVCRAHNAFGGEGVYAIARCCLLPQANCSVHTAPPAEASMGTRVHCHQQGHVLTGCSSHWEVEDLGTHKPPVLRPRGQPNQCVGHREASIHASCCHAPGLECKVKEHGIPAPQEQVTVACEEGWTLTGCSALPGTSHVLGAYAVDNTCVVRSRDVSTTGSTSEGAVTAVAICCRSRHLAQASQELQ

- Percentage of baseline: 157%
Substance: Alirocumab: anti-PCSK9 antibody, control molecule in the hPCSK9 challenge model
